According to patent US20210139548A1 (published 2021):
*1 amine or outer side, *2 acyl side, *3 side chain or, on linkers, in order; H or OH if unused. Side-chain parts run from the residue outwards. The star is where a group is joined. C18 diacid = O=C(O)CCCCCCCCCCCCCCCCC(=O)*; γGlu = O=C(O)[C@H](CCC(=O)[*:2])N[*:1]; Isovaleryl = CC(C)CC(=O)*; AEEA = NCCOCCOCC(=O)O

T1: human neuropeptide Y2 receptor (human, UniProt P49146 1-381)
T1 construct: whole, on cells; also called hNPY2 receptor; hNPY2-R
T1 sequence (looked up): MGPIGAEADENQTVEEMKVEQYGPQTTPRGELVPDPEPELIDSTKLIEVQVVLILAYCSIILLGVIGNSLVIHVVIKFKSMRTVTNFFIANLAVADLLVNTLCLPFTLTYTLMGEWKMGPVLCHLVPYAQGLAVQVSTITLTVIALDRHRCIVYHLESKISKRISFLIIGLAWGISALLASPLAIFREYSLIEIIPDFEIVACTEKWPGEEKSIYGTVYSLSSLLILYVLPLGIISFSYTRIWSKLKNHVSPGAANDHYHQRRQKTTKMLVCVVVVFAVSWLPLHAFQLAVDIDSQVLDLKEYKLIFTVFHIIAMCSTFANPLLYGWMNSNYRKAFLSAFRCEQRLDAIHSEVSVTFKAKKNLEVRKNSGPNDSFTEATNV


Target: T1, human neuropeptide Y2 receptor
Assay: radioligand competition (125I-PYY(1-36)), hNPY2R membranes
Summary of the method: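 Commercial human Y2 receptor membranes (0.5 μg protein/well) were incubated with peptide for 2 h at room temperature in 50 mM HEPES, 5 mM MgCl₂, 1 mM CaCl₂, pH 7.4, with 0.2% ovalbumin. Bound radioligand was separated on PEI-soaked GF/C filters and counted by scintillation, and IC₅₀ came from nonlinear sigmoidal regression.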

Row | Binder | Ki [nM]
1 | Isovaleryl-APEK([AEEA-AEEA-γGlu-C18 diacid])PEEDATPEELQRYYVELRHYYNWLTRQRY-NH2 (SMILES CC(C)CC(=O)N[C@@H](C)C(=O)N1CCC[C@H]1C(=O)N[C@@H](CCC(=O)O)C(=O)N[C@@H](CCCCNC(=O)COCCOCCNC(=O)COCCOCCNC(=O)CC[C@H](NC(=O)CCCCCCCCCCCCCCCCC(=O)O)C(=O)O)C(=O)N1CCC[C@H]1C(=O)N[C@@H](CCC(=O)O)C(=O)N[C@@H](CCC(=O)O)C(=O)N[C@@H](CC(=O)O)C(=O)N[C@@H](C)C(=O)N[C@H](C(=O)N1CCC[C@H]1C(=O)N[C@@H](CCC(=O)O)C(=O)N[C@@H](CCC(=O)O)C(=O)N[C@@H](CC(C)C)C(=O)N[C@@H](CCC(N)=O)C(=O)N[C@@H](CCCNC(=N)N)C(=O)N[C@@H](Cc1ccc(O)cc1)C(=O)N[C@@H](Cc1ccc(O)cc1)C(=O)N[C@H](C(=O)N[C@@H](CCC(=O)O)C(=O)N[C@@H](CC(C)C)C(=O)N[C@@H](CCCNC(=N)N)C(=O)N[C@@H](Cc1c[nH]cn1)C(=O)N[C@@H](Cc1ccc(O)cc1)C(=O)N[C@@H](Cc1ccc(O)cc1)C(=O)N[C@@H](CC(N)=O)C(=O)N[C@@H](Cc1c[nH]c2ccccc12)C(=O)N[C@@H](CC(C)C)C(=O)N[C@H](C(=O)N[C@@H](CCCNC(=N)N)C(=O)N[C@@H](CCC(N)=O)C(=O)N[C@@H](CCCNC(=N)N)C(=O)N[C@@H](Cc1ccc(O)cc1)C(N)=O)[C@@H](C)O)C(C)C)[C@@H](C)O) [Compound 101] | 3.29
2 | Isovaleryl-APEK([AEEA-AEEA-γGlu-C18 diacid])PEEDASPEELQKYYVALRHYYNWLTRQRY-NH2 (SMILES CC(C)CC(=O)N[C@@H](C)C(=O)N1CCC[C@H]1C(=O)N[C@@H](CCC(=O)O)C(=O)N[C@@H](CCCCNC(=O)COCCOCCNC(=O)COCCOCCNC(=O)CC[C@H](NC(=O)CCCCCCCCCCCCCCCCC(=O)O)C(=O)O)C(=O)N1CCC[C@H]1C(=O)N[C@@H](CCC(=O)O)C(=O)N[C@@H](CCC(=O)O)C(=O)N[C@@H](CC(=O)O)C(=O)N[C@@H](C)C(=O)N[C@@H](CO)C(=O)N1CCC[C@H]1C(=O)N[C@@H](CCC(=O)O)C(=O)N[C@@H](CCC(=O)O)C(=O)N[C@@H](CC(C)C)C(=O)N[C@@H](CCC(N)=O)C(=O)N[C@@H](CCCCN)C(=O)N[C@@H](Cc1ccc(O)cc1)C(=O)N[C@@H](Cc1ccc(O)cc1)C(=O)N[C@H](C(=O)N[C@@H](C)C(=O)N[C@@H](CC(C)C)C(=O)N[C@@H](CCCNC(=N)N)C(=O)N[C@@H](Cc1c[nH]cn1)C(=O)N[C@@H](Cc1ccc(O)cc1)C(=O)N[C@@H](Cc1ccc(O)cc1)C(=O)N[C@@H](CC(N)=O)C(=O)N[C@@H](Cc1c[nH]c2ccccc12)C(=O)N[C@@H](CC(C)C)C(=O)N[C@H](C(=O)N[C@@H](CCCNC(=N)N)C(=O)N[C@@H](CCC(N)=O)C(=O)N[C@@H](CCCNC(=N)N)C(=O)N[C@@H](Cc1ccc(O)cc1)C(N)=O)[C@@H](C)O)C(C)C) [Compound 107] | 1.1
3 | Isovaleryl-APEK([AEEA-AEEA-γGlu-C18 diacid])PEEAASPEELQRYYVSLRHYYNWLTRQRY-NH2 (SMILES CC(C)CC(=O)N[C@@H](C)C(=O)N1CCC[C@H]1C(=O)N[C@@H](CCC(=O)O)C(=O)N[C@@H](CCCCNC(=O)COCCOCCNC(=O)COCCOCCNC(=O)CC[C@H](NC(=O)CCCCCCCCCCCCCCCCC(=O)O)C(=O)O)C(=O)N1CCC[C@H]1C(=O)N[C@@H](CCC(=O)O)C(=O)N[C@@H](CCC(=O)O)C(=O)N[C@@H](C)C(=O)N[C@@H](C)C(=O)N[C@@H](CO)C(=O)N1CCC[C@H]1C(=O)N[C@@H](CCC(=O)O)C(=O)N[C@@H](CCC(=O)O)C(=O)N[C@@H](CC(C)C)C(=O)N[C@@H](CCC(N)=O)C(=O)N[C@@H](CCCNC(=N)N)C(=O)N[C@@H](Cc1ccc(O)cc1)C(=O)N[C@@H](Cc1ccc(O)cc1)C(=O)N[C@H](C(=O)N[C@@H](CO)C(=O)N[C@@H](CC(C)C)C(=O)N[C@@H](CCCNC(=N)N)C(=O)N[C@@H](Cc1c[nH]cn1)C(=O)N[C@@H](Cc1ccc(O)cc1)C(=O)N[C@@H](Cc1ccc(O)cc1)C(=O)N[C@@H](CC(N)=O)C(=O)N[C@@H](Cc1c[nH]c2ccccc12)C(=O)N[C@@H](CC(C)C)C(=O)N[C@H](C(=O)N[C@@H](CCCNC(=N)N)C(=O)N[C@@H](CCC(N)=O)C(=O)N[C@@H](CCCNC(=N)N)C(=O)N[C@@H](Cc1ccc(O)cc1)C(N)=O)[C@@H](C)O)C(C)C) [Compound 109] | 0.94
4 | Isovaleryl-APAK([AEEA-AEEA-γGlu-C18 diacid])PEEDASEEELQRYYVSLRHYYNWLTRQRY-NH2 (SMILES CC(C)CC(=O)N[C@@H](C)C(=O)N1CCC[C@H]1C(=O)N[C@@H](C)C(=O)N[C@@H](CCCCNC(=O)COCCOCCNC(=O)COCCOCCNC(=O)CC[C@H](NC(=O)CCCCCCCCCCCCCCCCC(=O)O)C(=O)O)C(=O)N1CCC[C@H]1C(=O)N[C@@H](CCC(=O)O)C(=O)N[C@@H](CCC(=O)O)C(=O)N[C@@H](CC(=O)O)C(=O)N[C@@H](C)C(=O)N[C@@H](CO)C(=O)N[C@@H](CCC(=O)O)C(=O)N[C@@H](CCC(=O)O)C(=O)N[C@@H](CCC(=O)O)C(=O)N[C@@H](CC(C)C)C(=O)N[C@@H](CCC(N)=O)C(=O)N[C@@H](CCCNC(=N)N)C(=O)N[C@@H](Cc1ccc(O)cc1)C(=O)N[C@@H](Cc1ccc(O)cc1)C(=O)N[C@H](C(=O)N[C@@H](CO)C(=O)N[C@@H](CC(C)C)C(=O)N[C@@H](CCCNC(=N)N)C(=O)N[C@@H](Cc1c[nH]cn1)C(=O)N[C@@H](Cc1ccc(O)cc1)C(=O)N[C@@H](Cc1ccc(O)cc1)C(=O)N[C@@H](CC(N)=O)C(=O)N[C@@H](Cc1c[nH]c2ccccc12)C(=O)N[C@@H](CC(C)C)C(=O)N[C@H](C(=O)N[C@@H](CCCNC(=N)N)C(=O)N[C@@H](CCC(N)=O)C(=O)N[C@@H](CCCNC(=N)N)C(=O)N[C@@H](Cc1ccc(O)cc1)C(N)=O)[C@@H](C)O)C(C)C) [Compound 103] | 0.95

Second part, the binder after the results:

Row | Ki [nM] | Binder
5 | 0.99 | Isovaleryl-APEK([AEEA-AEEA-γGlu-C18 diacid])PEEDASPEELQRYYVELRHYYNWLTRQRY-NH2 (SMILES CC(C)CC(=O)N[C@@H](C)C(=O)N1CCC[C@H]1C(=O)N[C@@H](CCC(=O)O)C(=O)N[C@@H](CCCCNC(=O)COCCOCCNC(=O)COCCOCCNC(=O)CC[C@H](NC(=O)CCCCCCCCCCCCCCCCC(=O)O)C(=O)O)C(=O)N1CCC[C@H]1C(=O)N[C@@H](CCC(=O)O)C(=O)N[C@@H](CCC(=O)O)C(=O)N[C@@H](CC(=O)O)C(=O)N[C@@H](C)C(=O)N[C@@H](CO)C(=O)N1CCC[C@H]1C(=O)N[C@@H](CCC(=O)O)C(=O)N[C@@H](CCC(=O)O)C(=O)N[C@@H](CC(C)C)C(=O)N[C@@H](CCC(N)=O)C(=O)N[C@@H](CCCNC(=N)N)C(=O)N[C@@H](Cc1ccc(O)cc1)C(=O)N[C@@H](Cc1ccc(O)cc1)C(=O)N[C@H](C(=O)N[C@@H](CCC(=O)O)C(=O)N[C@@H](CC(C)C)C(=O)N[C@@H](CCCNC(=N)N)C(=O)N[C@@H](Cc1c[nH]cn1)C(=O)N[C@@H](Cc1ccc(O)cc1)C(=O)N[C@@H](Cc1ccc(O)cc1)C(=O)N[C@@H](CC(N)=O)C(=O)N[C@@H](Cc1c[nH]c2ccccc12)C(=O)N[C@@H](CC(C)C)C(=O)N[C@H](C(=O)N[C@@H](CCCNC(=N)N)C(=O)N[C@@H](CCC(N)=O)C(=O)N[C@@H](CCCNC(=N)N)C(=O)N[C@@H](Cc1ccc(O)cc1)C(N)=O)[C@@H](C)O)C(C)C) [Compound 108]
6 | 0.87 | Isovaleryl-APEK([AEEA-AEEA-γGlu-C18 diacid])PEEDASPEELQRYYVTLRHYYNWLTRQRY-NH2 (SMILES CC(C)CC(=O)N[C@@H](C)C(=O)N1CCC[C@H]1C(=O)N[C@@H](CCC(=O)O)C(=O)N[C@@H](CCCCNC(=O)COCCOCCNC(=O)COCCOCCNC(=O)CC[C@H](NC(=O)CCCCCCCCCCCCCCCCC(=O)O)C(=O)O)C(=O)N1CCC[C@H]1C(=O)N[C@@H](CCC(=O)O)C(=O)N[C@@H](CCC(=O)O)C(=O)N[C@@H](CC(=O)O)C(=O)N[C@@H](C)C(=O)N[C@@H](CO)C(=O)N1CCC[C@H]1C(=O)N[C@@H](CCC(=O)O)C(=O)N[C@@H](CCC(=O)O)C(=O)N[C@@H](CC(C)C)C(=O)N[C@@H](CCC(N)=O)C(=O)N[C@@H](CCCNC(=N)N)C(=O)N[C@@H](Cc1ccc(O)cc1)C(=O)N[C@@H](Cc1ccc(O)cc1)C(=O)N[C@H](C(=O)N[C@H](C(=O)N[C@@H](CC(C)C)C(=O)N[C@@H](CCCNC(=N)N)C(=O)N[C@@H](Cc1c[nH]cn1)C(=O)N[C@@H](Cc1ccc(O)cc1)C(=O)N[C@@H](Cc1ccc(O)cc1)C(=O)N[C@@H](CC(N)=O)C(=O)N[C@@H](Cc1c[nH]c2ccccc12)C(=O)N[C@@H](CC(C)C)C(=O)N[C@H](C(=O)N[C@@H](CCCNC(=N)N)C(=O)N[C@@H](CCC(N)=O)C(=O)N[C@@H](CCCNC(=N)N)C(=O)N[C@@H](Cc1ccc(O)cc1)C(N)=O)[C@@H](C)O)[C@@H](C)O)C(C)C) [Compound 102]
